What was measured:
[1] = system: O=C[C@H](O)[C@@H](O)[C@H](O)[C@@H](O)CO; experiment: purified protein; details: NADPH
[2] = system: CCCCCC(O)C=CC=O; experiment: purified protein; details: NADPH

Substance: aldose reductase (AKR1B1) (Homo sapiens)
- Km [1]: 4260 ± 350 µM
- Km [2]: 51 ± 5 µM
